Reference: paper PMC12718381

What follows are substances tested against HA-STIM1-L258C (UniProt Q13586) (assay: disulfide crosslinking, Western blot). Conditions: diamide-treated STIM1/2 DKO HEK293 cells coexpressing HA-STIM1-L258C and a single mCh-STIM1 mutant; read off a plot.

other: Crosslinking (%) | Substance
2.9 | mCh-STIM1 417C
3.8 | mCh-STIM1 418C
1.8 | mCh-STIM1 421C
1.2 | mCh-STIM1 422C
7 | mCh-STIM1 424C
